B1: Avisivirus A (nucleic acid)
DNA: TTCACTCGCTTTCCCCCCCTCTCTATAGGGGCGGTCTTTTAATTCTTATTAATTTCCTACTTTACTATCAAATTTCTTCTAAGTAGGGACTGAGGTCACTTAGCCCTCCCTCTCCTGGGCTTTCCAGGGTTATAGAGGTTCTAAAGCTAAGCCATGTGTCTTGAGCTACACTTAGTACAAAGGTTTAGTAATGATTGTACATGCCAGTAACCTTCTAGTGCCCATGGATTAAAGAGTGGTAACACTCTCCATGGGGCCCGAAAGGCTAGTGGGCATAGTTGGCATCAAGGAAGGGGTCCCCACCCCAACCTGAATTGCTGGCTAGAAGCTCACCTTAGAAGAAGTGCTGGGTGACAACGTGTCCAATCGTGAACGACTGATGGAAACGTGTGGAGATGGATATGTGGGGGTTCACTGAGTAGATGCCCTGAAGGAGAAATCTGATCAGGGGCCCGTGACTATACGCTAGGTAAACCGGGTATAAAAACCATGAAAGGTGGCCCAAAATCTCTTCCTTTTATTTTATTTCTATGTTGGTGACAGTCAAG
modifications: Avisivirus A
B2: Fipivirus A (nucleic acid)
DNA: TGCGGGTAAACTCCCGCATGTGTGAATGAGGCGATGTCCCAGGAACTAACTGCCGATCCTGGTTTTAACTACGATCCGTATTTGTTACTAATGCGATATCCCCCCATTGTTTGCCTCCATGTTGTTTTCAACGCTTTTGGCCTTGAGTGTTATCAAGTGTTTTAGCGACATAGTGGGAAGCTACGGCTGCGTCCCCATTTTTGAGTGGCGACCCAGTTTTAGTGGCCACTCTGTCCCTGAACTGCGCTATAATGTGAATTTATGTTCACAAAAACGGACTGATGTAACTGTTAATGACTAAGGAATAGTACCTCACTGAAGTATCAAGACCCCGTTCGAGCGGTGTACATATATGGATGGAAACCTTGTCTGAGTCATCTCGAATACTAATCAATGAGGGATGTCGAGTAAGCATATCATGAACCACATAGAATAGTGGGGTTTCGGGGTTAGAGGCTCTCTGCAGCAATGTATCTCTAACACCATGGCCGAAATGAGAGATAGAGACCACGATGTTTGTGTGTAAGTAATGATGTGTGGAAAGAAAATTCTGAATGTTGGTATGATATCAGTCTAAGGGGAGTGGCTCACCTAAGAGCTACCCAAACATTTCACAGCAGACAACATAACGTACTGAGAGTAGTTGGAAGGTTCCAGAAATCAGT
modifications: Fipivirus A
B3: Fipivirus E (nucleic acid)
DNA: CTCTTCCGATCTTGGGGGTTCGCCCCCATGTCTCATTTCAACTAGCCGTGTGTCTAGTTAACGCACCGCCTCACCCTGGTCGTTATCGGGTCGGTTCTTGCGACCGTTAGATCGTGAGCGTTTCTGAGGATCAGTTCGTATAAGTTCTCCGGTGTGGCGACCGTAAAATCGTCACGTCCCATGCAATAGATGACGTTAAACTCGTTTGCCAGTTACATAAAGGAATGTTGTTACTTTTAAATTGTCTGTTACATTTAACATCTTGCCAGTATGATGCTACTGTACACTACGGGTGTAGGAACCTTGTAGTGTGACGTATCACTCATATGTGGATGGGTGCTCCAGACCTTTATGGAAGCTCTCAGTTAGTAGTGATCCTTGACTTCATTGAGCCCTGGTAACAGTGGAAGTCAAGATGTATATGTTGCTCAACACACTTCGGTGCTACGAAGCTGTTTGTGGAAGTACTGGCGAGGTTCATTCTGAATCATATGTTTGTCACATAGTCAGGGAGTGCCGTCGCTTACGACGGACCCTTTTTCTTTATAATTACAAATCTGTGTCTCAAGTGTTGTTGGCTGGTTTTCTTCTTCTGTTTTCATTGTTCATATATATACGTCAGAGTGAAAGACTCGGTATATACAAAACTGATCCAGA
modifications: Fipivirus E
B4: Hepatovirus C (nucleic acid)
DNA: TTCAAAAGCCCCAGCGGGGTTTCATTACCCCGCTGTGGCTTTTGGACTTCCCTAGGATGGGGAAGTAAATTACCATCCTCGCGTTTGCCGTGCGTTAACGGCTACTTTTCTTCTAGCTGTAGAAGTAAAATTCAGCATGTTTTATGTTTGTTTGTCTTGTTTGTTATATACATTTTTACACTCCTACAAATGCACATGAAGAACAGTTTGTAGAGATTAACAAACGCTTAGCTGAACCTAGGTGGTGAATCTAGTAGTAAGATAAGTAGAGGAAGCTATACCTTAAGTTGGTTGGGCCCTCGTGTTTGCTCTATAAACAAAACCAAGTGAGTAGAGTGGATGAACAGTACTAAATCCCTGAGTACAGGGAACCTCACAGGTGTGATACACTTATGTCTATGTGACCTGGTTGGAGGTTGGGCGTGCCCTATGATACTGGAGTGGGAGATCTTTTGGGGAACCCACGTTTTCACACTGCCTGATAGGGTCTTGCCGAGAGACTCACTTGTTTCGGCTGTACTTGTAAC
modifications: Hepatovirus C
B5: Avisivirus B (nucleic acid)
DNA: CACCCCCTACTGCCCTAACCCCCAAAGTTAGTTATAGGGTGGCTCCCTACCCTTACTCCACGGGGTAAGCCCTAACCCGGTTGAATCTCAAGATCAGCCTTAGCGAGGACTATTAGTACCGCTCAAACCCTTTGCCTGTAGTGCCCAGGGGTCACAGAGGGGTGACCCTCTCCCTGGGGCCCAAAAGGCTAGGTGGCAAGACAGGGTCCAAGTGAGGGGCTACTCTAAGTAGCCCCAAGCTGAACATCCTGTCTGAAGCCACCCTTGCAGGGCCAGGTTTGATTGGGGAAACTAGACACCAGCTTTGTCCTGGGATTGGGGGGATATCGAGTTAGTCCAGGAGGTGCGAGTAGATGCCCCCGAAGGTACCCCAGGCACATCTGGGATCTGATCGGGGGCCCGTGACTATACAATAGGTAAACCGGGTTAAAAAACATGAAAGCGCCTCTCTCTTTCCTACTTCTTTTATTGACTGGTGACAAAAATAGCAGT
modifications: Avisivirus B
B6: Hepatovirus I (nucleic acid)
DNA: GGCTGCCTGTGTCTCAGGGGTAAGTACTGGGGCCGCGTTGACCGTGCGGTACGGTTATGCTTTTAGATTAGGATGTCCGTCTGTCCGGCACTCTCTTTTGCTTAAAATGGCCTTAAATCCATGGGAGGCGTAACCATGGGCCCTTTGTTACCTAGACATGATTGCATTGGGGGCCGTCCTTGGGGCTTAGGCCCCAGCCATTTCTCTTGACTCGTCTAAGAGTTTACTTCATCCTTTTCTTTACTTTATTTTCCAGGCTCTCAGCATGCCGACGGCTCTGACCACTGCGCCCGGTGGGGTTAACTGCATGATTAGCATGCAGCTGTAGGAGTTAAAAGTGCTGACAGGCCAATTCTGACGTAAGTCCACTCTATATTAACTTGATCAAGTAAGGTTGATTGATCTTTGTGAGAGGGTAGGCTACGGGTGAAACCCTCTAGGTTAATACTCATATTGAGAGATACCTCCAGAAGGTGAAGGTTGGCGGATATTGGTGAGTTCTTTTAGGACAAAAACCTTTCAACGCCTGTGGGCCCACCTCACTGGCACAATGCTTTCATCCCCAATTGTGATGGGTAGTTTGGACTGAAATCAGGAGTAACCTGCCCTACGAGTTTAGGGGTAGTTCAGGGGTATTTAGGCTTCCACATTTGATAGAGTTTATGAGAGTGAGCC
modifications: Hepatovirus I
B7: Crohivirus A (nucleic acid)
DNA: GTTGAAGTCCATTTCTTGCTTGCCCCCGATGAATCCTGTTAAGGCCTCACGGCCCTAAGGGTGAAACTCGGTTATCCCCTCCTGTACTTCGAGAAGATTAGTACAACACTATGAAATCTACATCTTGTGATCCGGGATAACCCCAATCCCAGAAACCTGTGATGGGCGTCACCACCCCTCTTATGGTAACATAAGGGTGTCGCCGCGTTGGCACAGGACCCTTTGGGCTGGATGTTTTTAGTAATGGTGTCGAAGGTCCTATTGAGCTACAGGAGTTTCCTCCGCCCTGGTGAATGCGGCTAATCTTATCCCTGAGCCTAAGGTTGCGATCCAGCAACTTGATGGTCGTAATGCGTAAGTTGGGGGCGGAACCGACTACTTTCCAGAAGGCGTGTTTCTTTGTTTTGTCTGTTACTATGGTGCATGATATAGATATTGAATATTTGATCTTTTTGAGCTGTTTCTTATCTTATTGCTACATCCTTTCAGGTGTTGGATTTACATTTTGGTTAATAAG
modifications: Crohivirus A
B8: Fipivirus C (nucleic acid)
DNA: CGCGGTTAAACCCGCGCAACCTTCTTTCAGCCGCGTCTGAGTAGCGCGGTTAGTCCTGATACACAGTTTCCTGTTGGGTACTGTGTCTTCGGGTGAATGCTCTTGTGTGAATGTTTTAGGCTGTTTAAGGGAAGCGTTTCCCCGTGCGCTGTGAGGGTTTCTCACGCTCTTTCGGGGTGCAGTCTCTTCTGTTGTTCATTAAGATGTATGGATGCACTGTTGTGAAGGATTTGTGAACTGGGGATCGACACCCCGTGAGGGGTGCCCCAGTGTCCATAGGAGTTTGCTGGAGAGGTGTGTTGCTGTAGTGACTATCCGTGACCTGGCATTCTAAGGTGTTGACCCCAACCTGTGAGGGTCTGGATCGCAGTGTTGAAGTGCTTTGGAGGGTTCAATGGGGTTTCTGTAGTGGATATTATGTGCTTGACGACTACTGGTACGAGTGTATTGGGGGTCTACATGTGTGA
modifications: Fipivirus C
B9: Aquamavirus (nucleic acid, listed as Aquamavirus sp.)
DNA: TTCAAAGGTGGCGGGAGAGTTGGCCTCACGCTGTTTAGCGTGAGAGCTGGCTCTCCTGCCCCTTCCCCTGAGCCGGGGATCTTGGCTCATTCCCCTCTTTTCTATCCTCCCTCATTGGACTTTACGGATGACCCGGCATAAACTTGACAACCGATGTTGGATTTCCCTTGTGGCTGTGATGGAGGACATACCCTCGGGTGTAGTTGTGTGCGTGTCGCTCTGCGACTCGAGCTTCAAAGTGGTGCTGAAATATTGCAAGCGTCGTTGCTCGATTAACGGAGTGGTACAATCCTATGAACCCAAGTGCATTCATGCGAAAGCCCCGGAGGGGTGAGTAGCATGGACTCGAATCAGAAGAGCTGGAGCTCGCTTGGTACGGCACGTAGCATTGCTTTGCCTAAAGACCAAGGGGGTATGGCTATAGGTGGGGGCCTATAGCTTGTCCAGTGCTGGTTGACAGACTCGTGCTACGCGTCTGGTTCGAGTATAAGTAGCTGCAACTCACT
B10: RhPV (nucleic acid)
DNA: GATAAAAGAACCTATAATCCCTTCGCACACCGCGTCACACCGCGCTATATGCTGCTCATTAGGAATTACGGCTCCTTTTTTGTGGATACAATCTCTTGTATACGATATACTTATTGTTAATTTCATTGACCTTTACGCAATCCTGCGTAAATGCTGGTATAGGGTGTACTTCGGATTTCCGAGCCTATATTGGTTTTGAAAGGACCTTTAAGTCCCTACTATACTACATTGTACTAGCGTAGGCCACGTAGGCCCGTAAGATATTATAACTATTTTATTATATTTTATTCACCCCCCACATTAATCCCAGTTAAAGCTTTATAACTATAAGTAAGCCGTGCCGAAACGTTAATCGGTCGCTAGTTGCGTAACAACTGTTAGTTTAATTTTCCAAAATTTATTTTTCACAATTTTTAGTTAAGATTTTAGCTTGCCTTAAGCAGTCTTTATATCTTCTGTATATTATTTTAAAGTTTATAGGAGCAAAGTTCGCTTTACTCGCAATAGCTATTTTATTTATTTTAGGAATATTATCACCTCGTAATTATTTAATTATAACATTAGCTTTATCTATTTATA
modifications: Rhopalosiphum padi virus

Each molecule was assayed on HEK293 cells. Details: luminescence from secreted Gluc in supernatant 24 hours after transfection of HEK293 cells; circular RNA encoding Gluc with the named IRES (UTR truncated to 675 nt).
Assay type: cell-based, human

Molecule | Expression
B1 | 1.91E+05
B2 | 2.69E+05
B3 | 1.10E+05
B4 | 5.08E+05
B5 | 8.68E+04
B6 | 8.79E+05
B7 | 9.96E+04
B8 | 1.09E+05
B9 | 4.51E+06
B10 | 1.10E+05
